The source of these data is the RNAGym collection of RNA variant scans (doi:10.7554/elife.80360).

The labels stand for the following.
B1: Hammerhead Ribozyme (parent)
chain: ACCGGAUGUGCUUUCCGGUCUGAUGAGUCCGUGAGGACGAAACAG

Variants of B1 are the subject of this data set. Put plainly: self-cleavage, relative activity (ratio to wild type); higher = more cleavage; co-transcriptional.
As to U14G C15A, the self-cleavage was determined as 0.659. Take A37G A44C: the self-cleavage stood at 0.313. Regarding G10C C11U, the self-cleavage was 1.18. Consider G17C U24C, for which the self-cleavage is 0.457. In the case of C2A C20A, the self-cleavage turned out to be 0.292.

On to C20U C38U, for which the self-cleavage turned out to be 0.501. With A6U C30G, the self-cleavage was 0.525. Turning to G27A U28G, the self-cleavage worked out at 0.695. In the case of C16A G31U, the self-cleavage amounted to 1.29. For U9C A37U, the self-cleavage is 0.666.

Consider G10U A26U, for which the self-cleavage came out at 0.873. On to A26U G35C, for which the self-cleavage came to 0.377. As for A42C G45A, the figure is 0.539; as for U24C A41G, 0.358. For U9G G22A, the self-cleavage came to 0.321. As to U9G G22U, the self-cleavage was found to be 0.358. Take U9G C20A: the self-cleavage was 0.331. Take C15G A44C: the self-cleavage stood at 0.277. On to G22U A40U, for which the self-cleavage was found to be 0.332.

Regarding G35U C38U, the self-cleavage is 0.775. As to U24G U32G, the self-cleavage amounted to 0.405. Turning to U9C G10U, the self-cleavage was 0.795. As to U19G C30U, the self-cleavage stood at 0.399. With G22C A40C, the self-cleavage was 0.339. On to U14C A44C, for which the self-cleavage was determined as 0.489.

For the variant A1C A41C, the self-cleavage turned out to be 0.372. As for U32G A44U, the figure is 0.477; as for C2U U21A, 0.962.

Consider G18C U32A, for which the self-cleavage worked out at 0.554. Take G4U G35C: the self-cleavage was 0.326. For C15A C29U, the self-cleavage worked out at 0.753. Next, U21A C38U: 0.401. On to U14C G45U, for which the self-cleavage stood at 0.485. Next, U14C G31C: 0.816; U13A U19C: 0.898; C2G G36U: 0.325. C20A G35U: the self-cleavage worked out at 0.345.

In the case of U9G G31C, the self-cleavage turned out to be 0.754. For C11G C15A, the self-cleavage was 0.824. As for G35C G45C, the self-cleavage was 0.395. Next, C15G G27U: 0.339; G17U C43G: 0.291.

As to G36A A37C, the self-cleavage came to 0.414.

For C3A A41G, the self-cleavage was found to be 0.262. In the case of A6U A34C, the self-cleavage is 0.651. Turning to A1U U19A, the self-cleavage is 1.1. In the case of A6U U24C, the self-cleavage was 0.573.

Consider C29A G35A, for which the self-cleavage stood at 0.618. On to G10U U28G, for which the self-cleavage is 0.664.

As to A23C G25U, the self-cleavage came out at 0.298. As to U7A G35A, the self-cleavage came to 0.687. As for U28G C29U, the self-cleavage was 0.77.

On to U12C C30U, for which the self-cleavage worked out at 0.683.

Turning to C38U A41U, the self-cleavage came out at 0.453. Next, C15G A23C: 0.301; C2U C30G: 0.876; U14C U19G: 0.334.

On to C15U U19A, for which the self-cleavage stood at 0.344. As for G25A C29A, the figure is 0.348; as for C11A G17A, 0.717.

On to C16A G27A, for which the self-cleavage worked out at 0.715.

Take C11G G39A: the self-cleavage amounted to 0.253. On to G36C G45C, for which the self-cleavage came to 0.393. As to C16A A42G, the self-cleavage was determined as 0.296. As to G10A G36A, the self-cleavage came to 0.742. As for G4U G22U, the self-cleavage is 0.296. Consider G4A G39A, for which the self-cleavage came to 0.353. Turning to G5U G27A, the self-cleavage was found to be 0.504. In the case of A6C C20A, the self-cleavage was determined as 0.291. Take A1C G18A: the self-cleavage came out at 0.434. As for C3G G4C, the figure is 0.289; as for C11U G27C, 0.58. As to U12C U32C, the self-cleavage came out at 1.05.

For G22A A23G, the self-cleavage stood at 0.313. For G22A A23C, the self-cleavage worked out at 0.224. In the case of C30G G31A, the self-cleavage was determined as 0.806. Take C20G G31C: the self-cleavage stood at 0.321. Regarding C3A G4U, the self-cleavage amounted to 0.282. Regarding C3A G4A, the self-cleavage came out at 0.293. As for A6G C16U, the self-cleavage turned out to be 0.762. In the case of C2G, the self-cleavage was found to be 0.455. As for C16G G31C, the self-cleavage was determined as 0.823. Regarding C16U U21C, the self-cleavage turned out to be 0.473. G10A A42U: the self-cleavage stood at 0.38. Next, G4A A42C: 0.335. For the variant C2A U19C, the self-cleavage worked out at 0.38. As for U24G A26G, the self-cleavage was 0.304. Turning to A1U G45C, the self-cleavage was 0.493. As to A1G G35U, the self-cleavage was determined as 0.947. Consider C20A A23C, for which the self-cleavage was found to be 0.353. With C20G G33A, the self-cleavage was 0.333. As for C16A G22A, the self-cleavage was determined as 0.299. Consider G8A G27A, for which the self-cleavage came to 0.874. Take U7C C11U: the self-cleavage is 0.433. As to A26C C38U, the self-cleavage is 0.503. For the variant U12G A37U, the self-cleavage amounted to 0.438.

For the variant G18C U24C, the self-cleavage worked out at 0.477. As for U9C G33C, the self-cleavage was 1.18. Regarding C29G C43G, the self-cleavage amounted to 0.275. Consider C2A C3G, for which the self-cleavage is 0.277.

On to G22U A26U, for which the self-cleavage amounted to 0.315. Regarding G25U A34U, the self-cleavage turned out to be 0.294. On to U14C G36C, for which the self-cleavage came to 0.31. As for C11A A44G, the self-cleavage is 1.57. With C2A A6G, the self-cleavage turned out to be 0.426.

Turning to G10U G18U, the self-cleavage came out at 0.877. Next, A37G G39C: 0.371; U28A G45U: 0.496. As for U19C U21G, the figure is 0.221. U32A G45A: the self-cleavage was determined as 0.852. For G10U U32C, the self-cleavage was 0.694. Consider U7A U24A, for which the self-cleavage was determined as 1.26. Next, G10C G27A: 0.887. Next, C3A G36U: 0.283; C2A C29A: 0.376; A23U G35A: 0.471. Take C29A A41C: the self-cleavage amounted to 0.355.

On to A6G G18A, for which the self-cleavage amounted to 0.486.

A23C G36A: the self-cleavage is 0.412. Regarding G18U C20U, the self-cleavage worked out at 0.437. On to A1U G39A, for which the self-cleavage stood at 0.349. For G22C G33U, the self-cleavage worked out at 0.374. As for U9A A41U, the figure is 0.37; as for A6G G33C, 0.597. Consider C11A G35A, for which the self-cleavage was 0.981. On to G27A A44U, for which the self-cleavage was determined as 0.53. With G27A A37U, the self-cleavage was found to be 0.522. Take U12A A23C: the self-cleavage worked out at 0.366. Next, U32C A34G: 0.896; A6C C38G: 0.427. For the variant A6C C38U, the self-cleavage was 0.67. Next, A44G: 1.53. For U7A G39U, the self-cleavage is 0.289. Consider C29U A41C, for which the self-cleavage amounted to 0.319.

For U21C G39A, the self-cleavage was 0.304. For G5C G35U, the self-cleavage is 0.376. For the variant U12C U14G, the self-cleavage worked out at 0.902. Turning to U12C U14C, the self-cleavage amounted to 0.83. As for A1U C3U, the self-cleavage is 0.433.

With G5A C30A, the self-cleavage turned out to be 1.08.

Consider A6U A42C, for which the self-cleavage stood at 0.238. As for A1G G4A, the figure is 0.521; as for G10U A34G, 0.942; as for G10U A34U, 0.864. On to C20A G36U, for which the self-cleavage amounted to 0.306.

Turning to C11A C15A, the self-cleavage turned out to be 0.851.

For G10C G39C, the self-cleavage came to 0.324.

With U14G G17U, the self-cleavage came out at 0.485. As for C3U G17A, the figure is 1.03; as for C3U G17U, 0.866. Next, C38A G39C: 0.4. As for U12C A26G, the self-cleavage turned out to be 0.308. A6C A26G: the self-cleavage stood at 0.147. Next, A26C G35A: 0.431; G39U C43U: 0.371; U19A A41U: 0.308. With G22A A37C, the self-cleavage stood at 0.304. For the variant G31U G39A, the self-cleavage came out at 0.32. Turning to A26C G33U, the self-cleavage was 0.774. In the case of U21A G33A, the self-cleavage was 0.808.

U12A A34C: the self-cleavage came to 1.08. Next, U32A G33U: 0.859. Next, U14C A41G: 0.312; U7C G8C: 0.961; A1G C16A: 1.15.

For the variant A23C C30U, the self-cleavage is 0.578.

On to U14A G35A, for which the self-cleavage worked out at 0.665.
